Numbered stars: 1 amine (or outer) side, 2 acyl side, 3 side chain; on linkers, the order of the positions; unused ones are H or OH. Bridge positions count the residues as written; N and C are the ends. Square brackets hold non-standard residues; d marks the D form. Side chains are listed from the residue outwards. Ends that are not written are not given here. * marks the point of attachment. C18 diacid = O=C(O)CCCCCCCCCCCCCCCCC(=O)*; γGlu = O=C(O)[C@H](CCC(=O)[*:2])N[*:1]; αMeF = C[C@](N)(Cc1ccccc1)C(=O)O; Dab = NCC[C@H](N)C(=O)O; Aib = CC(C)(N)C(=O)O
T1: human calcitonin receptor (human, UniProt P30988 25-474)
T1 sequence (looked up): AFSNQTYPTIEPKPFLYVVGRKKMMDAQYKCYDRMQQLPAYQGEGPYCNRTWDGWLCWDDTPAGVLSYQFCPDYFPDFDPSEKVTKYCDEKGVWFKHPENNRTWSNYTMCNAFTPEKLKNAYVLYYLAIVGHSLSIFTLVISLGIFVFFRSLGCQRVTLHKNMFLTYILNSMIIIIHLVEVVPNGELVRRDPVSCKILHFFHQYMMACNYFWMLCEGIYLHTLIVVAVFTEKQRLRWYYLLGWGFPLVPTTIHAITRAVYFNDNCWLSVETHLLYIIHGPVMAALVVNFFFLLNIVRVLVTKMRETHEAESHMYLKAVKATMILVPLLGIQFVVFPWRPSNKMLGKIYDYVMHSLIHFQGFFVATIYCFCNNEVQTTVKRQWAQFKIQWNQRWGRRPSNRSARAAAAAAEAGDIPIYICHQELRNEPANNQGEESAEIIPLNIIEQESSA

T2: human amylin receptor (calcitonin receptor co-expressed with receptor activity modifying protein, RAMP3) (human, UniProt P30988 25-474; O60896 24-148)
T2 sequence (looked up) 1: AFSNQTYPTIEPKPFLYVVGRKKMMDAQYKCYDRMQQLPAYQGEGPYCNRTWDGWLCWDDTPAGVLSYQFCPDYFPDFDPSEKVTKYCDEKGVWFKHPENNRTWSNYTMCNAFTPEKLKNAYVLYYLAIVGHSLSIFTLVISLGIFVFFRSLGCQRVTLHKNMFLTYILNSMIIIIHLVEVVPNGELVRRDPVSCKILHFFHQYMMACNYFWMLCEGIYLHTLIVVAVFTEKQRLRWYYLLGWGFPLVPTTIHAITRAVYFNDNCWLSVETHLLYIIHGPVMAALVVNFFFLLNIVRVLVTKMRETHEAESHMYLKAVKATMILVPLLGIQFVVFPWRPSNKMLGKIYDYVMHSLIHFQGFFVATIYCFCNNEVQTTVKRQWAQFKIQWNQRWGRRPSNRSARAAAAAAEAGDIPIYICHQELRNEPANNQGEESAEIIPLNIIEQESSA
T2 sequence (looked up) 2: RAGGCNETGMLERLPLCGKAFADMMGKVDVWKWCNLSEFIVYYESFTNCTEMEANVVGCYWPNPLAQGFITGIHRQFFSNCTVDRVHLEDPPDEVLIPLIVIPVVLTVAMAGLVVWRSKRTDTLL


Tests used:
[1] = molecular target: T1, human calcitonin receptor; test: cell-based or functional assay
[2] = molecular target: T2, human amylin receptor (calcitonin …); test: cell-based or functional assay

| Binder | EC50 (cAMP production) [1] [nM] | EC50 (cAMP production) [2] [nM] | Ratio (EC50 hCTR / EC50 hAMYR3) [2] |
| --- | --- | --- | --- |
| K([γGlu-C18 diacid])KCNTATCATQRLANFLVHSS[Dab]NFGPILPPTEVGSNTY-NH2 (disulfide 3-8; N-terminus assumed; SMILES CC[C@H](C)[C@H](NC(=O)[C@@H]1CCCN1C(=O)CNC(=O)[C@H](Cc1ccccc1)NC(=O)[C@H](CC(N)=O)NC(=O)[C@H](CCN)NC(=O)[C@H](CO)NC(=O)[C@H](CO)NC(=O)[C@H](Cc1c[nH]cn1)NC(=O)[C@@H](NC(=O)[C@H](CC(C)C)NC(=O)[C@H](Cc1ccccc1)NC(=O)[C@H](CC(N)=O)NC(=O)[C@H](C)NC(=O)[C@H](CC(C)C)NC(=O)[C@H](CCCNC(=N)N)NC(=O)[C@H](CCC(N)=O)NC(=O)[C@@H](NC(=O)[C@H](C)NC(=O)[C@@H]1CSSC[C@H](NC(=O)[C@H](CCCCN)NC(=O)[C@@H](N)CCCCNC(=O)CC[C@H](NC(=O)CCCCCCCCCCCCCCCCC(=O)O)C(=O)O)C(=O)N[C@@H](CC(N)=O)C(=O)N[C@@H]([C@@H](C)O)C(=O)N[C@@H](C)C(=O)N[C@@H]([C@@H](C)O)C(=O)N1)[C@@H](C)O)C(C)C)C(=O)N[C@@H](CC(C)C)C(=O)N1CCC[C@H]1C(=O)N1CCC[C@H]1C(=O)N[C@H](C(=O)N[C@@H](CCC(=O)O)C(=O)N[C@H](C(=O)NCC(=O)N[C@@H](CO)C(=O)N[C@@H](CC(N)=O)C(=O)N[C@H](C(=O)N[C@@H](Cc1ccc(O)cc1)C(N)=O)[C@@H](C)O)C(C)C)[C@@H](C)O) [Peptide 28 (SEQ ID NO: 28)] | 9.14 | 0.39 | 23 |
| K([γGlu-C18 diacid])KCNTATCATQRLANFLVHSS[Dab]NFGPILPPTNVGSNTY-NH2 (disulfide 3-8; N-terminus assumed; SMILES CC[C@H](C)[C@H](NC(=O)[C@@H]1CCCN1C(=O)CNC(=O)[C@H](Cc1ccccc1)NC(=O)[C@H](CC(N)=O)NC(=O)[C@H](CCN)NC(=O)[C@H](CO)NC(=O)[C@H](CO)NC(=O)[C@H](Cc1c[nH]cn1)NC(=O)[C@@H](NC(=O)[C@H](CC(C)C)NC(=O)[C@H](Cc1ccccc1)NC(=O)[C@H](CC(N)=O)NC(=O)[C@H](C)NC(=O)[C@H](CC(C)C)NC(=O)[C@H](CCCNC(=N)N)NC(=O)[C@H](CCC(N)=O)NC(=O)[C@@H](NC(=O)[C@H](C)NC(=O)[C@@H]1CSSC[C@H](NC(=O)[C@H](CCCCN)NC(=O)[C@@H](N)CCCCNC(=O)CC[C@H](NC(=O)CCCCCCCCCCCCCCCCC(=O)O)C(=O)O)C(=O)N[C@@H](CC(N)=O)C(=O)N[C@@H]([C@@H](C)O)C(=O)N[C@@H](C)C(=O)N[C@@H]([C@@H](C)O)C(=O)N1)[C@@H](C)O)C(C)C)C(=O)N[C@@H](CC(C)C)C(=O)N1CCC[C@H]1C(=O)N1CCC[C@H]1C(=O)N[C@H](C(=O)N[C@@H](CC(N)=O)C(=O)N[C@H](C(=O)NCC(=O)N[C@@H](CO)C(=O)N[C@@H](CC(N)=O)C(=O)N[C@H](C(=O)N[C@@H](Cc1ccc(O)cc1)C(N)=O)[C@@H](C)O)C(C)C)[C@@H](C)O) [Peptide 29 (SEQ ID NO: 29)] | 8.21 | 0.243 | 34 |
| K([γGlu-C18 diacid])KCNTATCATQRLANFL[Aib]HSS[Dab]NFGPILPPTEVGSNTY-NH2 (disulfide 3-8; N-terminus assumed; SMILES CC[C@H](C)[C@H](NC(=O)[C@@H]1CCCN1C(=O)CNC(=O)[C@H](Cc1ccccc1)NC(=O)[C@H](CC(N)=O)NC(=O)[C@H](CCN)NC(=O)[C@H](CO)NC(=O)[C@H](CO)NC(=O)[C@H](Cc1c[nH]cn1)NC(=O)C(C)(C)NC(=O)[C@H](CC(C)C)NC(=O)[C@H](Cc1ccccc1)NC(=O)[C@H](CC(N)=O)NC(=O)[C@H](C)NC(=O)[C@H](CC(C)C)NC(=O)[C@H](CCCNC(=N)N)NC(=O)[C@H](CCC(N)=O)NC(=O)[C@@H](NC(=O)[C@H](C)NC(=O)[C@@H]1CSSC[C@H](NC(=O)[C@H](CCCCN)NC(=O)[C@@H](N)CCCCNC(=O)CC[C@H](NC(=O)CCCCCCCCCCCCCCCCC(=O)O)C(=O)O)C(=O)N[C@@H](CC(N)=O)C(=O)N[C@@H]([C@@H](C)O)C(=O)N[C@@H](C)C(=O)N[C@@H]([C@@H](C)O)C(=O)N1)[C@@H](C)O)C(=O)N[C@@H](CC(C)C)C(=O)N1CCC[C@H]1C(=O)N1CCC[C@H]1C(=O)N[C@H](C(=O)N[C@@H](CCC(=O)O)C(=O)N[C@H](C(=O)NCC(=O)N[C@@H](CO)C(=O)N[C@@H](CC(N)=O)C(=O)N[C@H](C(=O)N[C@@H](Cc1ccc(O)cc1)C(N)=O)[C@@H](C)O)C(C)C)[C@@H](C)O) [Peptide 30 (SEQ ID NO: 30)] | 10.5 | 0.873 | 12 |
| K([γGlu-C18 diacid])KCNTATCATQRLANFLVHSS[Dab]NFG[Aib]ILPPTNVGSNTY-NH2 (disulfide 3-8; N-terminus assumed; SMILES CC[C@H](C)[C@H](NC(=O)C(C)(C)NC(=O)CNC(=O)[C@H](Cc1ccccc1)NC(=O)[C@H](CC(N)=O)NC(=O)[C@H](CCN)NC(=O)[C@H](CO)NC(=O)[C@H](CO)NC(=O)[C@H](Cc1c[nH]cn1)NC(=O)[C@@H](NC(=O)[C@H](CC(C)C)NC(=O)[C@H](Cc1ccccc1)NC(=O)[C@H](CC(N)=O)NC(=O)[C@H](C)NC(=O)[C@H](CC(C)C)NC(=O)[C@H](CCCNC(=N)N)NC(=O)[C@H](CCC(N)=O)NC(=O)[C@@H](NC(=O)[C@H](C)NC(=O)[C@@H]1CSSC[C@H](NC(=O)[C@H](CCCCN)NC(=O)[C@@H](N)CCCCNC(=O)CC[C@H](NC(=O)CCCCCCCCCCCCCCCCC(=O)O)C(=O)O)C(=O)N[C@@H](CC(N)=O)C(=O)N[C@@H]([C@@H](C)O)C(=O)N[C@@H](C)C(=O)N[C@@H]([C@@H](C)O)C(=O)N1)[C@@H](C)O)C(C)C)C(=O)N[C@@H](CC(C)C)C(=O)N1CCC[C@H]1C(=O)N1CCC[C@H]1C(=O)N[C@H](C(=O)N[C@@H](CC(N)=O)C(=O)N[C@H](C(=O)NCC(=O)N[C@@H](CO)C(=O)N[C@@H](CC(N)=O)C(=O)N[C@H](C(=O)N[C@@H](Cc1ccc(O)cc1)C(N)=O)[C@@H](C)O)C(C)C)[C@@H](C)O) [Peptide 31 (SEQ ID NO: 31)] | 1.28 | 0.349 | 4 |
| K([γGlu-C18 diacid])KCNTATCATQRLA[Dab]FLVHSSNN[αMeF]GPILPPTEVGSNTY-NH2 (disulfide 3-8; N-terminus assumed; SMILES CC[C@H](C)[C@H](NC(=O)[C@@H]1CCCN1C(=O)CNC(=O)[C@](C)(Cc1ccccc1)NC(=O)[C@H](CC(N)=O)NC(=O)[C@H](CC(N)=O)NC(=O)[C@H](CO)NC(=O)[C@H](CO)NC(=O)[C@H](Cc1c[nH]cn1)NC(=O)[C@@H](NC(=O)[C@H](CC(C)C)NC(=O)[C@H](Cc1ccccc1)NC(=O)[C@H](CCN)NC(=O)[C@H](C)NC(=O)[C@H](CC(C)C)NC(=O)[C@H](CCCNC(=N)N)NC(=O)[C@H](CCC(N)=O)NC(=O)[C@@H](NC(=O)[C@H](C)NC(=O)[C@@H]1CSSC[C@H](NC(=O)[C@H](CCCCN)NC(=O)[C@@H](N)CCCCNC(=O)CC[C@H](NC(=O)CCCCCCCCCCCCCCCCC(=O)O)C(=O)O)C(=O)N[C@@H](CC(N)=O)C(=O)N[C@@H]([C@@H](C)O)C(=O)N[C@@H](C)C(=O)N[C@@H]([C@@H](C)O)C(=O)N1)[C@@H](C)O)C(C)C)C(=O)N[C@@H](CC(C)C)C(=O)N1CCC[C@H]1C(=O)N1CCC[C@H]1C(=O)N[C@H](C(=O)N[C@@H](CCC(=O)O)C(=O)N[C@H](C(=O)NCC(=O)N[C@@H](CO)C(=O)N[C@@H](CC(N)=O)C(=O)N[C@H](C(=O)N[C@@H](Cc1ccc(O)cc1)C(N)=O)[C@@H](C)O)C(C)C)[C@@H](C)O) [Peptide 32 (SEQ ID NO: 32)] | 11.1 | 0.742 | 15 |
| K([γGlu-C18 diacid])KCNTATCATQRLA[Dab]FLVHSSNNFGPILPPTNVGSNTY-NH2 (disulfide 3-8; N-terminus assumed; SMILES CC[C@H](C)[C@H](NC(=O)[C@@H]1CCCN1C(=O)CNC(=O)[C@H](Cc1ccccc1)NC(=O)[C@H](CC(N)=O)NC(=O)[C@H](CC(N)=O)NC(=O)[C@H](CO)NC(=O)[C@H](CO)NC(=O)[C@H](Cc1c[nH]cn1)NC(=O)[C@@H](NC(=O)[C@H](CC(C)C)NC(=O)[C@H](Cc1ccccc1)NC(=O)[C@H](CCN)NC(=O)[C@H](C)NC(=O)[C@H](CC(C)C)NC(=O)[C@H](CCCNC(=N)N)NC(=O)[C@H](CCC(N)=O)NC(=O)[C@@H](NC(=O)[C@H](C)NC(=O)[C@@H]1CSSC[C@H](NC(=O)[C@H](CCCCN)NC(=O)[C@@H](N)CCCCNC(=O)CC[C@H](NC(=O)CCCCCCCCCCCCCCCCC(=O)O)C(=O)O)C(=O)N[C@@H](CC(N)=O)C(=O)N[C@@H]([C@@H](C)O)C(=O)N[C@@H](C)C(=O)N[C@@H]([C@@H](C)O)C(=O)N1)[C@@H](C)O)C(C)C)C(=O)N[C@@H](CC(C)C)C(=O)N1CCC[C@H]1C(=O)N1CCC[C@H]1C(=O)N[C@H](C(=O)N[C@@H](CC(N)=O)C(=O)N[C@H](C(=O)NCC(=O)N[C@@H](CO)C(=O)N[C@@H](CC(N)=O)C(=O)N[C@H](C(=O)N[C@@H](Cc1ccc(O)cc1)C(N)=O)[C@@H](C)O)C(C)C)[C@@H](C)O) [Peptide 33 (SEQ ID NO: 33)] | 15.8 | 0.598 | 26 |

Reference: patent US20220204580A1 (AstraZeneca / MedImmune, published 2022)
